Measurements published in publication PMC5053157, “Crystal structure of yeast monothiol glutaredoxin Grx6 in complex with a glutathione-coordinated [2Fe–2S] cluster” (Acta Crystallographica. Section F, Structural Biology …, 2016).
Values joined by “and” are separate entries in the source; they are usually repeats but may differ in a detail not shown here. Equal entries are not always repeated.

Target: the molecule itself
Assay: SEC; HiLoad 16/60 Superdex 75; 20 mM NaCl, 50 mM Tris-HCl pH 8.0, 2 mM EDTA, 10 mM GSH; apparent molecular masses

B1: Saccharomyces cerevisiae glutaredoxin Grx6 without the signal peptide (residues Lys37-Asn231) (enzyme)
chain: KEETSKAFSTNMDNMAGGSSREYAAMPTSTTNKGSSEVDEEINEIKQKVGLQQPIASVDDSLSAIKNDKGSRITKAFNVQKEYSLILDLSPIIIFSKSTCSYSKGMKELLENEYQFIPNYYIIELDKHGHGEELQEYIKLVTGRGTVPNLLVNGVSRGGNEEIKKLHTQGKLLESLQVWSDGKFSVEQREKPSNNLEHHHHHH
stoichiometry N: 2 and 4
